The values below are quoted from earlier work in paper PMC9464413.

The data set has as its target p97 (Homo sapiens) (UniProt P55072). Put plainly: SPR. In general terms: SPR reads the build-up and loss of mass on a sensor chip optically.
Sequence of UniProt P55072 (P55072 2-806): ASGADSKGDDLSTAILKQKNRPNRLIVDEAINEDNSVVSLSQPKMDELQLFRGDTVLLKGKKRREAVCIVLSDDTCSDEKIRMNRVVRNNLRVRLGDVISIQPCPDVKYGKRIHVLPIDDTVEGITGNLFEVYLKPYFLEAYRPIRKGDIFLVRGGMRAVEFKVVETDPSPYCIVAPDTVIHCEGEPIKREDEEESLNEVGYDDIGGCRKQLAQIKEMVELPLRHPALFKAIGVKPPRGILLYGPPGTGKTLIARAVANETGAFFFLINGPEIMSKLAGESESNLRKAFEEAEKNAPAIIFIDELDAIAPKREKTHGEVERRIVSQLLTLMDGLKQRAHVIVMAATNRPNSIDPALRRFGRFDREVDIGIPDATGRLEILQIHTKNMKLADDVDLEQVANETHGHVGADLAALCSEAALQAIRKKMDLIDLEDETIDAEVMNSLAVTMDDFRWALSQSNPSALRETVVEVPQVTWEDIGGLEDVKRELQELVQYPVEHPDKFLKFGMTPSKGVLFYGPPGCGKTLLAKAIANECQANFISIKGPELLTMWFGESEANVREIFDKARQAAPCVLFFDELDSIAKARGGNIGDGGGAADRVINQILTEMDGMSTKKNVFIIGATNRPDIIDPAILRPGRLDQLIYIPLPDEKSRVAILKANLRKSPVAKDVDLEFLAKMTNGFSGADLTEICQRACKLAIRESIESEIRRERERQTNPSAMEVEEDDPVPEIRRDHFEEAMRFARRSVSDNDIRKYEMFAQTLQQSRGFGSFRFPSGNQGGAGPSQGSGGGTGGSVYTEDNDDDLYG

Regarding p37 (from UniProt Q14CS0), the dissociation constant Kd (in general, the free concentration of one partner at which half of the binding sites on the other are occupied at equilibrium, for simple one-to-one binding) is 29 nM.

Consider p47 (from UniProt Q9UNZ2), for which the Kd was 20 nM.
